Measurements: publication doi:10.1101/2023.01.27.525918 (bioRxiv, 2023)
Values belong to the binder of their own block, whether it stands above or below them.

Tests used:
[1] = target: T1, Human RPA complex (RPA70, RPA32, RPA14), recombinant full length (human, UniProt P27694;P15927;P35244); assay: SEC
[2] = target: RPA70 as the subunit of the purified recombinant RPA complex (human, UniProt P27694 1-616); assay: cross-linking
[3] = target: T1, Human RPA complex (RPA70, RPA32, …); assay: pull-down
[4] = target: ZUP1;RPA complex WT (RPA70/RPA32/RPA14) (Homo sapiens;Homo sapiens, UniProt Q96AP4;P27694;P15927;P35244 1-578;1-616;1-270;1-121, |); assay: EMSA
Chain of ZUP1;RPA complex WT (RPA70/RPA32/RPA14) (P27694 whole entry, chain 2 of 3): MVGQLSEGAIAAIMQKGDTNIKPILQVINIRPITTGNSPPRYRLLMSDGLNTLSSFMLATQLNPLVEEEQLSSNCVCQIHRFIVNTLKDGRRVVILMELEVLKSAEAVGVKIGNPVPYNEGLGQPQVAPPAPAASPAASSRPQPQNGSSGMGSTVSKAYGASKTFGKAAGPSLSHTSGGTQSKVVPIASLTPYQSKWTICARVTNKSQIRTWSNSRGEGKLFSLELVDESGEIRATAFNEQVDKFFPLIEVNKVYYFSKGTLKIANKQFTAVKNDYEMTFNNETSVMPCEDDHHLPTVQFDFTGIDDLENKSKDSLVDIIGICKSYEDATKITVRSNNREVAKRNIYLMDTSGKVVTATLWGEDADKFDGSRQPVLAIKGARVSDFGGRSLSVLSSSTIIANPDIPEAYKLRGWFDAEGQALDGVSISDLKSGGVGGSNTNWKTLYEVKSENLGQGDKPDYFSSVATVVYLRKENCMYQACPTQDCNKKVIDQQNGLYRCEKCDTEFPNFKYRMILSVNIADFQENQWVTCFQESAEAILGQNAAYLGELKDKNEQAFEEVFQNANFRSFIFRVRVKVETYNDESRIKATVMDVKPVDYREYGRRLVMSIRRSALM
Chain of ZUP1;RPA complex WT (RPA70/RPA32/RPA14) (P15927 whole entry, chain 3 of 3): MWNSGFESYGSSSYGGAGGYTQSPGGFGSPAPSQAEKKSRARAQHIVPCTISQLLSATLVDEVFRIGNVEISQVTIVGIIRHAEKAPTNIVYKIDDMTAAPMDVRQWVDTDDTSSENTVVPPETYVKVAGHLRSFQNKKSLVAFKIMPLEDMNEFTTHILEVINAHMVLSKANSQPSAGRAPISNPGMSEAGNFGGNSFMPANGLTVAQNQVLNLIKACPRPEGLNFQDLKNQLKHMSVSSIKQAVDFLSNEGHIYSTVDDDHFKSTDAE
Chain of ZUP1;RPA complex WT (RPA70/RPA32/RPA14) (P35244 whole entry, chain 4 of 3): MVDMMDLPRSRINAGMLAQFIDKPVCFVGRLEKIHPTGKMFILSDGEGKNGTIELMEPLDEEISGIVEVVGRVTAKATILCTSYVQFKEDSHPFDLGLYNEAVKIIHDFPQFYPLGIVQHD

T1 sequence (P27694 whole entry, chain 1 of 3): as the sequence (P27694 whole entry, chain 2 of 3) above
T1 sequence (P15927 whole entry, chain 2 of 3): as the sequence (P15927 whole entry, chain 3 of 3) above
T1 sequence (P35244 whole entry, chain 3 of 3): as the sequence (P35244 whole entry, chain 4 of 3) above
Chain of UniProt P27694 (P27694 whole entry, one chain of several): as the sequence (P27694 whole entry, chain 2 of 3) above

binding result [1]: binds
binding result [2]: binds
B1: ZUP1 C360A (catalytically inactive mutant of full length ZUP1) (enzyme)
chain: MLSCNICGETVTSEPDMKAHLIVHMESEIICPFCKLSGVNYDEMCFHIETAHFEQNTLERNFERINTVQYGTSDNKKDNTLQCGMEVNSSILSGCASNHPKNSAQNLTKDSTLKHEGFYSENLTESRKFLKSREKQSSLTEIKGSVYETTYSPPECPFCGKIEEHSEDMETHVKTKHANLLDIPLEDCDQPLYDCPMCGLICTNYHILQEHVDLHLEENSFQQGMDRVQCSGDLQLAHQLQQEEDRKRRSEESRQEIEEFQKLQRQYGLDNSGGYKQQQLRNMEIEVNRGRMPPSEFHRRKADMMESLALGFDDGKTKTSGIIEALHRYYQNAATDVRRVWLSSVVDHFHSSLGDKGWGAGYRNFQMLLSSLLQNDAYNDCLKGMLIPCIPKIQSMIEDAWKEGFDPQGASQLNNRLQGTKAWIGACEVYILLTSLRVKCHIVDFHKSTGPLGTHPRLFEWILNYYSSEGEGSPKVVCTSKPPIYLQHQGHSRTVIGIEEKKNRTLCLLILDPGCPSREMQKLLKQDIEASSLKQLRKSMGNLKHKQYQILAVEGALSLEEKLARRQASQVFTAEKIP

binding result [3]: binds
B2: GST-ZUP1 α-2/3-C78 (aa 272-578) (domain or fragment)
chain: SGGYKQQQLRNMEIEVNRGRMPPSEFHRRKADMMESLALGFDDGKTKTSGIIEALHRYYQNAATDVRRVWLSSVVDHFHSSLGDKGWGCGYRNFQMLLSSLLQNDAYNDCLKGMLIPCIPKIQSMIEDAWKEGFDPQGASQLNNRLQGTKAWIGACEVYILLTSLRVKCHIVDFHKSTGPLGTHPRLFEWILNYYSSEGEGSPKVVCTSKPPIYLQHQGHSRTVIGIEEKKNRTLCLLILDPGCPSREMQKLLKQDIEASSLKQLRKSMGNLKHKQYQILAVEGALSLEEKLARRQASQVFTAEKIP

B3: Gap-26 (mixed)
DNA 1: CTATGGCGAGGCGATTATCAACCCATTTAGTCGTAATAGTGAAGAGTCACGACAACATCG
DNA 2: TAATCGCCTCGCCATAG
DNA 3: CGATGTTGTCGTGACTC
binding result [4]: binds
